Data from the supplement of paper PMC9170038.

System: MS2 coat protein
Assay: apparent KD of MS2 coat protein; designed switch direction (-1 OFF switch, 1 ON switch): -1; higher = weaker reporter binding
Outline: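 Transcription of designed RNA switches on Illumina chips was done by stalled E. coli RNA polymerase. SNAP-549-labelled MS2 coat protein was then titrated in doubling steps from 0.7 or 1.5 nM to 3 µM, with steps of 0.8–1.5 h at the lowest and 10–20 min at the highest concentration. The per-design median over clusters of curve-fitted normalised fluorescence is reported as apparent KD.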

[1] = Eterna round: R95, input ligand: FMN 200 uM
[2] = Eterna round: R95, input ligand: microRNA oligo, concentration not stated
[3] = Eterna round: R95, input ligand: none
[4] = input ligand: microRNA oligo, concentration not stated

Row | Sequence | apparent KD of MS2 coat protein [1] | apparent KD of MS2 coat protein [2] | apparent KD of MS2 coat protein [3] | apparent KD of MS2 coat protein [4] | apparent KD of MS2 coat protein (input ligand: FMN 200 uM) | apparent KD of MS2 coat protein (input ligand: none)
1 | ACAAGCGAAAGGCUCGUCUUAUUUUUGUAGAGGUCCUAAACAUGAGGAUCACCCAUGUAGUGGCGAUGGUGGAGGUA [JR_SV3TOV2_Sub068] (puzzle: Sensor v3, turn-off variant 2) | 91.2 nM | 134 nM | 103 nM | – | – | –
2 | AUUUAAUUUAAUAAGAUCACAUGAGGAUCACCCAUGUUAUAAUAGGAUAUCAGCUCGUGUAGAGCUGAGAAGGAUUAUAACAUG [ExNG3/9-A3] (Eterna round: R96, puzzle: Exclusion NG 3) | – | – | – | 22.2 nM | – | –
3 | ACCUUACUGGUCAGGAUAUACAGUCUCGGGUGGGUGUAGAAGGGACAUGAGGAUCACCCAUGUAGGUUGCAGCA [alecazam56] (Eterna round: R97, puzzle: Brourd's mod of Exclusion 4) | – | – | – | – | 100 nM | 156 nM
4 | ACAUGAGGAUCACCCAUGUCCGGCUGGUCCGUCUCGGCUGUCGAGGAUAUAGCACGGUAUCCGCGCUAGAAGGCGGGAGCCGGA [Aenatbe mod 85] (Eterna round: R96, puzzle: Exclusion NG 3) | – | – | – | 26 nM | 72.4 nM | 39.6 nM
5 | CGGAAGAUCGAAGGAUAUUGAGACAAACAGUGUCAAGAAGGUUGGGAGGACACAUGAGGAUCACCCAUGUCCAACUUUUGACGG [Eternabot solution 26] (Eterna round: R96, puzzle: Exclusion NG 1) | – | – | – | 9.76 nM | 12.7 nM | 12.4 nM
6 | AUUAUAAAGGCAGGAUAUACAUGAGGAUCACCCAUGUAUAUCCGAUAAUAAUAUAAGUGCCUCAUGUAGAAGGGCCAUUAUAUA [Same State Mistake] (Eterna round: R96, puzzle: Exclusion NG 2) | – | – | – | 8.76 nM | 11.1 nM | 12.4 nM
7 | GAUAAGGUAGGAUAUACGAAUAAAGAGGGUAGUAAUAAUACACAUGAGGAUCACCCAUGUAGAAGGACCAAUAG [Mat - Exclusion 2 - Mod of my Tesla design - D42] (puzzle: Exclusion 2) | 41.2 nM | 19.3 nM | 17.9 nM | – | – | –
8 | AGAUCUAGGACAGGAUAUAUGGAUGUCUUCAUCGAAGAUGAAGACAUUACAUGAGGAUCACCCAUGUAGAAGGGUCCUAGAUCA [Omei Exc(NG) 2Av3] (Eterna round: R96, puzzle: Exclusion NG 2) | – | – | – | 17.5 nM | 17.3 nM | 22.2 nM
9 | GGUGAGCUAGGAUAUGCUUUGGGCUCGCUUUCCUUCGUUUUACUUGAGGAUCACCCAAGUAGAAGGAGCUUGCC [salish99_ex2_r4_036] (Eterna round: R97, puzzle: Exclusion 2) | – | – | – | – | 13.9 nM | 12.2 nM
10 | CGACUGGUAGGAUAUACAUGAGGAUCACCCAUGUACCUGACAUGAGAAUAAACCAUCGGUAGAAGGGCUAAGUC [Eternabot (L2) Solution 79] (Eterna round: R97, puzzle: Exclusion 3) | – | – | – | – | 21.8 nM | 21.3 nM
11 | CUCUUGUUAGGAUAUCAAACUGGCAGCGGAGCUGGCAGAAGUGAGAAGGGACAUGAGGAUCACCCAUGUAAGAA [Aristeza] (puzzle: Exclusion 4) | – | 70.2 nM | – | – | – | –
12 | ACCUAACAUGAGGAUCACCCAUGUCAGGAUAUCCGGCCUAUGGAAACAUAGGAAGAACGGAGAAGGGACAGAGG [ChP 04-04-2015 #9] (puzzle: Exclusion 1) | 69.5 nM | 35 nM | 43.1 nM | – | – | –
13 | CUUGUACAUGAGGAUCACCCAUGUUAGGAUAUCUCGCCGUCGGCUUGCCGACGGUAUUAGAGAAGGGACUUGGG [JL Tixe mod 6] (puzzle: Exclusion 1) | – | 50.8 nM | – | – | – | –
14 | AAUAAUAAAGUCAGGAUAUCUAGAGCCUCGGCUCUAGAGAAGGGACAUGAGGAUCACCCAUGUCACUCAAUAAU [BmEx4/3-D2] (Eterna round: R97, puzzle: Brourd's mod of Exclusion 4) | – | – | – | – | 20.2 nM | 17.7 nM
15 | CAGCCAAGUGUGAGGAUAUGGCGAUUGCAUUGACGUCAGAAGGCACAUGAGGAUCACCCAUGUGAGGUGGAUGA [Eternabot (L2) Solution 25] (Eterna round: R97, puzzle: Brourd's mod of Exclusion 4) | – | – | – | – | 45.8 nM | 755 nM
16 | AAUAAACAUGAGGAUCACCCAUGUCAGGAUAUCCAUUUGUUUUUGUUGGUUUUUUUUUGGAGAAGGGACGCUUA [Lollin - Alpha 1] (puzzle: Exclusion 1) | – | 58.1 nM | – | – | – | –

Row | Sequence | apparent KD of MS2 coat protein [1] | apparent KD of MS2 coat protein [2] | apparent KD of MS2 coat protein [3] | apparent KD of MS2 coat protein [4] | apparent KD of MS2 coat protein (input ligand: FMN 200 uM) | apparent KD of MS2 coat protein (input ligand: none)
17 | CAGCGACAUGAGGAUCACCCAUGUGGCUUCGUUCCCGCUGGCAAGGAUAUCCAGUCUUCGUGAGAGGAGAAGGUGCAAAAUAAG [Atveso] (Eterna round: R96, puzzle: Exclusion NG 3) | – | – | – | 31.7 nM | 65.2 nM | 49.3 nM
18 | UCUAGACAUGAGGAUCACCCAUGUGAGGAUAUGAUGCGAUCGUCGAAAGACGAUAGCAUCAGAAGGCACAUAUG [Fiskers Ex 1 - 4] (puzzle: Exclusion 1) | – | 117 nM | – | – | – | –
19 | UUUUAACAUGAGGAUCACCCAUGUGAGGAUAUCCUAUUUUUUUUUUUUUUUUUUUUUUGGAGAAGGCACAUUUU [My solution] (puzzle: Exclusion 1) | 23.1 nM | 38.3 nM | 7.45 nM | – | – | –
20 | AAUAACAGAGGAUAUACUGUUUUAUGUGUUUAUUGUUUUAAACAUGAGGAUCACCCAUGUAGAAGGCUGAGUAA [JMF 32] (puzzle: Exclusion 2) | – | 33.5 nM | – | – | – | –
21 | UCAUGUCCUGAGGAUAUGUAGCGGAUAAACGCAACAGAAGGCAGGACAUGAGGAUCACCCAUGUGUGCCUUCCA [Exclusion 6 Mod of JL of Mod of Letion by ViennaUCT] (Eterna round: R97, puzzle: Exclusion 6) | – | – | – | – | 8.14 nM | 113 nM
22 | AGUGGGCGCGUAGGAUAUGAGGAUCACCCAUAGAAGGAUAUCGAAAGAGAAGGUCUGAGGAUUACCCAGAAGGACGGGUUUGUA [pwkr exNG2 2xF5 2xFMN.15] (Eterna round: R96, puzzle: Exclusion NG 2) | – | – | – | 278 nM | 925 nM | 232 nM
23 | UCUCAGCCUAAGGAUAUGAGCCGAACCAAAAGUUCAGAAGGUAGGACAUGAGGAUCACCCAUGUGAGCCUACAC [Eternabot (Original) Solution 39] (Eterna round: R97, puzzle: Exclusion 6) | – | – | – | – | 34.3 nM | 21.3 nM
24 | GUACUGACAGGAUAUACAUGAGGAUCACCCAUGUGCCCUUAUAGAUGCAAAGCAUCUAGUAGAAGGGUCUGUAC [Omei Ex3 Model Bachelor's Dilema v24] (Eterna round: R97, puzzle: Exclusion 3) | – | – | – | – | 32.8 nM | 26.9 nM
25 | GAUUGACAUGAGGAUCACCCAUGUGAGGAUAUCGGCCGGACCGUGCUGGCUUCCGUCGCGAGAAGGCGCAUAGG [Exclusion 1 V41] (puzzle: Exclusion 1) | 78.2 nM | 35.5 nM | 38.9 nM | – | – | –
26 | UGGUAAUCAGUUAGGAUAUCAUCCGGCGUUGUCGGUGAGAAGGAACAUGAGGAUCACCCAUGUAUCGAUUUUAG [BmEX4 B.13] (Eterna round: R97, puzzle: Brourd's mod of Exclusion 4) | – | – | – | – | 26.5 nM | 19 nM
27 | AAAUGUUCGGAGGAUAUAGAACGAUUGUCCGAGCUAGAAGGCCGAACAUGAGGAUCACCCAUGUGUACCUUAAA [Tibiares] (puzzle: Exclusion 6) | 306 nM | 40.1 nM | 53.7 nM | – | – | –
28 | UUAUGAGUAGGAUAUGAGCCAAAAUACAUGAGGAUCACCCAUGUCGGGUUCAUGGAGGGCUCAGAAGGAUUCAAUA [Exclusion 5 - Laarte Mod] (Eterna round: R97, puzzle: Exclusion 5) | – | – | – | – | 105 nM | 17 nM
29 | AUCAGCUCGUGAGGAUAUACAUGAGGAUCACCCAUGUGAUCAAUAGCAGCUUCGGCUGCAUUAAUGUAGAAGGCACGAGCUGAU [ENG2/5-A3] (Eterna round: R96, puzzle: Exclusion NG 2) | – | – | – | 22.2 nM | 77.9 nM | 214 nM
30 | AGUGUCAAGCAAGCAAGGAACAUGAGGAUCACCCAUGUCGUACAAUAAACGCCCGCUCGUCGCACGUCGUGCGUAGA [Eternabot (Original) Solution 18] (Eterna round: R97, puzzle: Sensor, turn-off variant 1) | – | – | – | – | 34.3 nM | 27.2 nM
31 | GGUCAGAUGGUAGGAUAUCCAUAUCGAGUGACCCUUUUAUAACAUGAGGAUCACCCAUGUCGGUGGGAGAAGGGCCGUACGGCG [salish99_ExNG02_R04_018] (Eterna round: R96, puzzle: Exclusion NG 2) | – | – | – | 129 nM | 244 nM | 224 nM
